{"source": "patent US20190225703A1", "about": "(INNATE PHARMA, published 2019)", "binders": {"B1": {"name": "antibody 7H10 (antibody, human IgG1, V domains shown)", "VH": "DVQLQESGPGLVKPSQSLSLTCTVTGYSITSDYAWNWIRQFPGNKLEWMGYIIYSGSTSYNPSLNSRISITRDTSKNQFFLQLNSVTTEDTATYYCAREAYLYFDYWGQGTTLTVSS", "VL": "DIQMTQTTSSLSASLGDRVTISCRASQDINNYLNWYQQKPDGTVKLLIYYTSRLHSGVPSRFSGSGSGTDYSLTISNLEREDVATYFCQQGNTLPWTFGGGTKLEIK"}}, "key": {"human CD73 mutant 2": {"biological_target": "T1, human CD73 mutant 2 (human, UniProt P21589 27-549)", "T1 construct": "Transfected in HEK-293T cells; The cell prints A1071, read as A107I", "T1 chain": "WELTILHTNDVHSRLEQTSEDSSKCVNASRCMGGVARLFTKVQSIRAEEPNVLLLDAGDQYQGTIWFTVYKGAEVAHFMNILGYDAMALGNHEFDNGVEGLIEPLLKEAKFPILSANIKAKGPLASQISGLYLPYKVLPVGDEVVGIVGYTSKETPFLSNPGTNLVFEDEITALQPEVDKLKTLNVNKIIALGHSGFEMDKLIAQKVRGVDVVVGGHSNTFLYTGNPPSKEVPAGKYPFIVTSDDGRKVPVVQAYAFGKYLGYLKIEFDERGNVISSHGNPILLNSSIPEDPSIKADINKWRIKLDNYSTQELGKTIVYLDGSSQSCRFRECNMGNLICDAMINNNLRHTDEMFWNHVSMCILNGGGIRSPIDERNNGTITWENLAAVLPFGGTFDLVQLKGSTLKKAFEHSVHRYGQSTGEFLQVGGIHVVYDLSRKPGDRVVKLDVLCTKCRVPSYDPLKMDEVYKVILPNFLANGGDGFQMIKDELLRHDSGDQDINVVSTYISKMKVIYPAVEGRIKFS", "assay": "flow cytometry titration on HEK-293T cells transfected with CD73 mutant 2", "experimental": "Anti-CD73 antibodies are tested for their binding to each mutant by flow cytometry. A first experiment is performed to determine antibodies that lose their binding to one or several mutants at one concentration. To confirm a loss of binding, titration of antibodies is done on antibodies for which binding seemed to be affected by the CD73 mutations (1-0.1-0.01-0.001 μg/ml)."}, "[1]": {"biological_target": "T2, human CD73 (ecto-5'-nucleotidase) expressed at the cell surface (human, UniProt P21589 27-549)", "T2 construct": "Used for huCD73-expressing recombinant cell lines, MDA-MB-231 cells (endogenous CD73), HEK-293T cells with wild type CD73, and primary T and B cells; also called huCD73; wild type CD73", "T2 sequence": "T1 chain with S44Q, A47R, E48A, I81A, G83R", "assay": "flow cytometry titration on MDA-MB-231 cells, endogenous CD73", "experimental": "(§1) 10⁵ cells resuspended in PBS/0.2% BSA/0.02% NaN3 (named “staining buffer”) are distributed into round bottom 96W-microplates. Dose-range of anti-CD73 antibodies was added to the plates and cells are incubated for 45 min at 4° C. Cells were washed three times in staining buffer by spinning plates at 400 g for 3 min at 4° C. PE-coupled goat anti-mouse or goat anti-human IgG Fc fragment secondary antibodies (Beckman Coulter) diluted in staining buffer were added to the cells and plates are incubated for 30 additional minutes at 4° C. Cells were washed three times as described above and analyzed on an Accury C6 flow cytometer equipped with an HTFC plate reader.\n(§2) Median of fluorescence vs. antibodies concentration was plotted on graphs and EC50 is calculated using GraphPad Prism program."}, "[2]": {"biological_target": "T3, cynomolgus CD73 expressed at the cell surface (cynomolgus)", "T3 construct": "whole, on cells; Recombinant cell line expressing cynomolgus CD73; also called cynoCD73", "assay": "flow cytometry titration on cynomolgus-CD73-expressing cell line", "experimental": "as §1, §2"}, "[3]": {"biological_target": "T4, mouse CD73 expressed at the cell surface (mouse, UniProt Q61503 29-551)", "T4 construct": "whole, on cells; Recombinant cell line expressing mouse CD73; also called moCD73", "T4 sequence (looked up)": "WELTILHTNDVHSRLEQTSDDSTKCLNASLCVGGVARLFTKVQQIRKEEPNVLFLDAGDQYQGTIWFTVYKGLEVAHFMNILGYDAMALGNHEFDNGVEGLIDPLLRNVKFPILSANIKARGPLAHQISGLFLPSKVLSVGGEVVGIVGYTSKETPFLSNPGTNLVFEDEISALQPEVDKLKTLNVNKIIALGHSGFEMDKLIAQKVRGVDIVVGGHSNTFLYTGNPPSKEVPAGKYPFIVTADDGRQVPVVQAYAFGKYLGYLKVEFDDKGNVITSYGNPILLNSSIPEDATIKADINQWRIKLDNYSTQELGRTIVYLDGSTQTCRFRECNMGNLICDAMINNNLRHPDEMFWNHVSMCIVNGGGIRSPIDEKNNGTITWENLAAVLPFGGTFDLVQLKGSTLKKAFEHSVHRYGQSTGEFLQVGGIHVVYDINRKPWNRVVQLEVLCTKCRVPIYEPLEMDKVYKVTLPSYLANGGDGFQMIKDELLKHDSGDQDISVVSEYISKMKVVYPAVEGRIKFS", "assay": "flow cytometry titration on a cell line expressing mouse CD73", "experimental": "as §1, §2"}}, "note": "Changes are numbered by the printed parent chain.", "data": [{"binder": "B1", "values": [{"measurement": "binding result", "setting": "human CD73 mutant 2", "value": "no binding (tested: 10 µg/ml)"}, {"measurement": "EC50", "setting": "[1]", "value": 0.054, "unit": "µg/mL"}, {"measurement": "fold lower EC50 than AD2", "setting": "[1]", "value": "~8", "unit": "fold"}, {"measurement": "EC50", "setting": "[2]", "value": 0.335, "unit": "µg/mL"}, {"measurement": "binding result", "setting": "[3]", "value": "no binding (tested: 10 µg/ml)"}]}]}
